From article PMC6277429 come the findings set out here.

Holding throughout (test): EMSA
What all share (settings): 10 mM Tris pH 7.5, 100 mM KCl (Fig. 3 legend; not in Methods), 1 mM DTT, 2.5% glycerol, 20 mM MgCl2, 500 ng poly(dI-dC), 0.05% NP-40; 30 nM DNA; 10 min room …
(In general: In EMSA bound probe runs differently from free probe, usually more slowly.)

Data set [1] deals with T1, MBP-NnaR (Mycobacterium smegmatis mc2 155) (UniProt A0QPK7).
T1 sequence: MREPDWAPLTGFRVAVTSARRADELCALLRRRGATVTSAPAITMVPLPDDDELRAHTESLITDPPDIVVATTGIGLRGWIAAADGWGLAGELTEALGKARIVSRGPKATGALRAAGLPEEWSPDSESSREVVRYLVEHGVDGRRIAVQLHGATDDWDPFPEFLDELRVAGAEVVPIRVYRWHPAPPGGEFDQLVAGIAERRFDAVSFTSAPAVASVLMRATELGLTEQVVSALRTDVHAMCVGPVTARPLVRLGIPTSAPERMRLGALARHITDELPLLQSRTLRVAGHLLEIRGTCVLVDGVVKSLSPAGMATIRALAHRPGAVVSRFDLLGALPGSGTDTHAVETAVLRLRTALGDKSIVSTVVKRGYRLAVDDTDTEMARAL

Data set [2] deals with T2, MBP-NnaR;His-GlnR (Mycobacterium smegmatis mc2 155;Mycobacterium smegmatis mc2 155) (UniProt A0QPK7+A0R4C4).
T2 sequence 1: T1 sequence
T2 sequence 2: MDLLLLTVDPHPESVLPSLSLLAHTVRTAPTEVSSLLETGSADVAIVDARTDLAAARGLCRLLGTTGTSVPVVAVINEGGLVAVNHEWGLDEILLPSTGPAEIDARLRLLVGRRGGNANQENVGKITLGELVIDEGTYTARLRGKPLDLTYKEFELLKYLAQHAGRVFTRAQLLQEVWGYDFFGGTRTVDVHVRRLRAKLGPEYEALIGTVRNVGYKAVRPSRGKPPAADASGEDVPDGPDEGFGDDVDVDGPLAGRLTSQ

Data set [3] deals with T3, His-GlnR (Mycobacterium smegmatis mc2 155) (UniProt A0R4C4).
T3 sequence: T2 sequence 2

Turning to “ATCTGCATCATCTCGCGACTTTGGTCAGCTGTCGCCCTGGCGCGCCGAGGCACGGCAGGTTTCGCACGCCCAGGCATCTCACAGCCGACGCTGAGCTGATGTGCGCAGATGGCAACACCGATGCATAGGTCAAGTCGCCGAACCGCAATCTGGGCGCGACACGGTCTAGGGAACTGTCCATCGGGTCCATCGGAAGGTTGCACCCAATG (double strand) [msmeg_5360 promoter]”, the binding entry was “no binding” in data set [1], “binds” in data set [2] and “no binding” in data set [3].
Turning to “CATAGGGCGAGGCTAAGAACCCGATATTGCCGCGATGTCGCGCTGTGTGAAGCCCCCATCACGGTGTGCTCACGTCTTCGGCAACGCACATGTGAGGTCCCCGACCGGTGAGCTCTCCGGACCACAGTCAGGCCACAACCGCC (double strand) [msmeg_0427 promoter]”, in data set [1], the binding result is listed as “binds”.
As for “CGTGTGGCCCTTTCGTTCGATCCCGAGCACAGAGATTAACTGTACTGACCACGCAAGGCGAGACGTCGGCACTCGTGACGTCCTCACACGGTTTTCACAACGCACTCACAAGACATGTGAGCAGCACGTAGCGGACCCGGTACGCCTGGGCAATGGTGCGGCAACGGGGTTCTCCGACGCTGAACGCATG (double strand) [msmeg_5765 promoter]”, the binding result in data set [1] was “binds”; in data set [3], “binds more weakly”.
Take “GACCCCTGGTGACCGCGTAACGGCTTTCTCACAGGTGCCCGCCGATCCAGGTGAGCGGAATTTCACGGCCGGGTCATCGCGCGCAGTGTCGGGGCAATAATCGCTTTCTAGCGTGCTCGCATG (double strand) [msmeg_0433 promoter]”: the binding result in data set [1] is listed as “binds”; in data set [3] it was “binds more weakly”.
On to “GCAGCTTGGACCACCTATTTCCACGCCATGAACGACCTCGCCCGAAAATTGATGAGCGCGTTCGCCCTCGGGTTGAGGTTGCCCGCCGACTACTTCGTCGACACCATCGA (double strand) [msmeg_4008 promoter]”, for which the binding entry in data set [1] was “no binding”; in data set [2], “binds”; in data set [3], “no binding”.
